This assay has as its target PDL1 on the surface of TC-1 cells (UniProt Q9EP73). Briefly: flow cytometry, staining of TC-1 tumor cells (background control).
UniProt Q9EP73, sequence (Q9EP73 19-290 limits assumed): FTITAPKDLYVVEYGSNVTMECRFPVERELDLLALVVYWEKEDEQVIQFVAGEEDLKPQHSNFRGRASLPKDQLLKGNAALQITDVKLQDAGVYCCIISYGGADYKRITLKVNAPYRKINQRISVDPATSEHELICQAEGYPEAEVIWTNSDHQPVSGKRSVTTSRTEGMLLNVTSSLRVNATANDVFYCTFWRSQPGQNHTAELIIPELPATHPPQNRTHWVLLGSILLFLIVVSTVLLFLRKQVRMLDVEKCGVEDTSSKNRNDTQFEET

PE-conjugated isotype control antibody showed a median fluorescent intensity (MFI) of 184.

These data come from patent US20190134195A1.
